Results from US20140087995A1 (published 2014).
Numbered stars: 1 amine (or outer) side, 2 acyl side, 3 side chain; on linkers, the order of the positions; unused ones are H or OH. Bridge positions count the residues as written; N and C are the ends. Side chains are listed from the residue outwards. Ends that are not written are not given here. * marks the point of attachment. C20 diacid = O=C(O)CCCCCCCCCCCCCCCCCCC(=O)*; γGlu = O=C(O)[C@H](CCC(=O)[*:2])N[*:1]

How the values were obtained:
[1] = target: T1, human calcitonin receptor (human, UniProt P30988 25-474); experiment: ratio IC50 hCTR / IC50 hAmylin-R (reference: human amylin receptor), SPA competition assays
T1 construct: whole, on cells; Assay used cell membranes, not intact cells; also called hCTR; hCT
T1 sequence (looked up): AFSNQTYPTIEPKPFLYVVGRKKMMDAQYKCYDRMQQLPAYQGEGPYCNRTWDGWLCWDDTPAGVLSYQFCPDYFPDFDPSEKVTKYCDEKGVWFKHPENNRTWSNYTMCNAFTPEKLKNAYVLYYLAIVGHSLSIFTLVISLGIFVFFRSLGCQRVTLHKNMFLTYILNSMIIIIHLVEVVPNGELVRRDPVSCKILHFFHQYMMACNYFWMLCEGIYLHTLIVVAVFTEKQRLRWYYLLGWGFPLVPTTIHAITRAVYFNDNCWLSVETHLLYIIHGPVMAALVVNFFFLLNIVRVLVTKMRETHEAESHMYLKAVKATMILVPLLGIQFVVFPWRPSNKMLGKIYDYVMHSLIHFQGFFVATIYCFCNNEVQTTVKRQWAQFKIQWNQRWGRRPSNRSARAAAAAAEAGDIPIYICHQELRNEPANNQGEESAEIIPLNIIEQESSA
In short: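 Competition binding by SPA with cell membranes (35 ng/μL) and SPA beads in 50 mM Hepes pH 7.4 with 1 mM CaCl2, 5 mM MgCl2, 0.1% OA and 0.02% Tween20. Incubated 120 min at 25 °C with shaking, then counted.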

[2] = target: T1, human calcitonin receptor; experiment: SPA competition with 125I-calcitonin on membranes of BHK cells with human calcitonin receptor (Assay VII)
In short: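 BHK hCTR membranes 35 ng/μL + SPA beads 0.05 mg/well; buffer 50 mM Hepes pH 7.4, 1 mM CaCl2, 5 mM MgCl₂, 0.1% OA, 0.02% Tween20. 120 min, 25° C., shaking. Scintillation count; IC50 by one-site binding competition.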

[3] = target: T2, human amylin receptor (amylin 3(a) receptor: human calcitonin receptor with RAMP-3) (human, UniProt P30988 25-474; O60896 24-148); experiment: SPA competition with 125I-rat amylin on membranes of BHK cells with human calcitonin receptor and RAMP-3 (Assay V)
T2 construct: whole, on cells; Assay used cell membranes of the Amylin 3(a)/CRE-luc BHK cells, not intact cells; also called hAmylin-R; hAmylinR
T2 sequence (looked up) 1: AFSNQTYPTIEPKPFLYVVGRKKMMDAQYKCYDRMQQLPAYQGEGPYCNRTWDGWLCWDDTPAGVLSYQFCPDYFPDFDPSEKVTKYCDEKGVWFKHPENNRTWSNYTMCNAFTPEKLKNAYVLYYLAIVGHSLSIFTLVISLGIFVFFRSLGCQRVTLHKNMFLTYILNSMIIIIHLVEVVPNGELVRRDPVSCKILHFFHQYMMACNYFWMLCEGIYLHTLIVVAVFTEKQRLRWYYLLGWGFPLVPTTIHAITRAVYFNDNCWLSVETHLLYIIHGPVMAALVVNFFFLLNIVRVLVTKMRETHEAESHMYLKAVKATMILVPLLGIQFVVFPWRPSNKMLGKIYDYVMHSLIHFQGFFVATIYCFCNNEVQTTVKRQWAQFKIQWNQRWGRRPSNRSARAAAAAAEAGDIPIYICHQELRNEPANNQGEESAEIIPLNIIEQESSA
T2 sequence (looked up) 2: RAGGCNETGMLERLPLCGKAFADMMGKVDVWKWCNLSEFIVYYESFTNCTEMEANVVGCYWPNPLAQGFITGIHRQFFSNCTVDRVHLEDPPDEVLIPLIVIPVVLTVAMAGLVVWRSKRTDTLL
In short: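 SPA beads with BHK Amylin 3(a)/CRE-luc cell membranes (35 ng/μL final) in 50 mM Hepes pH 7.4, 1 mM CaCl2, 5 mM MgCl₂, 0.1% OA, 0.02% Tween20.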

B1: N^ε1-[(4S)-4-carboxy-4-[[(4S)-4-carboxy-4-(19-carboxynonadecanoylamino)butanoyl]amino]butanoyl]-[Glu14,Arg17,Pro21,Pro27,Arg34]-h-amylin (peptide)
peptide: K([γGlu-γGlu-C20 diacid])CNTATCATQRLAEFLRHSSPNFGAIPSSTNVGRNTY-NH2
modifications: disulfide 2-7; N-terminus assumed
SMILES: CC[C@H](C)[C@H](NC(=O)[C@H](C)NC(=O)CNC(=O)[C@H](Cc1ccccc1)NC(=O)[C@H](CC(N)=O)NC(=O)[C@@H]1CCCN1C(=O)[C@H](CO)NC(=O)[C@H](CO)NC(=O)[C@H](Cc1c[nH]cn1)NC(=O)[C@H](CCCNC(=N)N)NC(=O)[C@H](CC(C)C)NC(=O)[C@H](Cc1ccccc1)NC(=O)[C@H](CCC(=O)O)NC(=O)[C@H](C)NC(=O)[C@H](CC(C)C)NC(=O)[C@H](CCCNC(=N)N)NC(=O)[C@H](CCC(N)=O)NC(=O)[C@@H](NC(=O)[C@H](C)NC(=O)[C@@H]1CSSC[C@H](NC(=O)[C@@H](N)CCCCNC(=O)CC[C@H](NC(=O)CC[C@H](NC(=O)CCCCCCCCCCCCCCCCCCC(=O)O)C(=O)O)C(=O)O)C(=O)N[C@@H](CC(N)=O)C(=O)N[C@@H]([C@@H](C)O)C(=O)N[C@@H](C)C(=O)N[C@@H]([C@@H](C)O)C(=O)N1)[C@@H](C)O)C(=O)N1CCC[C@H]1C(=O)N[C@@H](CO)C(=O)N[C@@H](CO)C(=O)N[C@H](C(=O)N[C@@H](CC(N)=O)C(=O)N[C@H](C(=O)NCC(=O)N[C@@H](CCCNC(=N)N)C(=O)N[C@@H](CC(N)=O)C(=O)N[C@H](C(=O)N[C@@H](Cc1ccc(O)cc1)C(N)=O)[C@@H](C)O)C(C)C)[C@@H](C)O
notes: also called compound 88
Q: How did the “Ratio hCT/hAmylin binding” value [1] turn out when B1 was run?
A: 46.5

Q: And the IC50 [2]?
A: 34.9 nM

Q: And the IC50 [3]?
A: 0.75 nM

B2: N^ε1-[(4S)-4-carboxy-4-[[(4S)-4-carboxy-4-(19-carboxynonadecanoylamino)butanoyl]amino]butanoyl]-[Glu14,Arg17,Pro21,Pro27,Arg35]-h-amylin (peptide)
peptide: K([γGlu-γGlu-C20 diacid])CNTATCATQRLAEFLRHSSPNFGAIPSSTNVGSRTY-NH2
modifications: disulfide 2-7; N-terminus assumed
SMILES: CC[C@H](C)[C@H](NC(=O)[C@H](C)NC(=O)CNC(=O)[C@H](Cc1ccccc1)NC(=O)[C@H](CC(N)=O)NC(=O)[C@@H]1CCCN1C(=O)[C@H](CO)NC(=O)[C@H](CO)NC(=O)[C@H](Cc1c[nH]cn1)NC(=O)[C@H](CCCNC(=N)N)NC(=O)[C@H](CC(C)C)NC(=O)[C@H](Cc1ccccc1)NC(=O)[C@H](CCC(=O)O)NC(=O)[C@H](C)NC(=O)[C@H](CC(C)C)NC(=O)[C@H](CCCNC(=N)N)NC(=O)[C@H](CCC(N)=O)NC(=O)[C@@H](NC(=O)[C@H](C)NC(=O)[C@@H]1CSSC[C@H](NC(=O)[C@@H](N)CCCCNC(=O)CC[C@H](NC(=O)CC[C@H](NC(=O)CCCCCCCCCCCCCCCCCCC(=O)O)C(=O)O)C(=O)O)C(=O)N[C@@H](CC(N)=O)C(=O)N[C@@H]([C@@H](C)O)C(=O)N[C@@H](C)C(=O)N[C@@H]([C@@H](C)O)C(=O)N1)[C@@H](C)O)C(=O)N1CCC[C@H]1C(=O)N[C@@H](CO)C(=O)N[C@@H](CO)C(=O)N[C@H](C(=O)N[C@@H](CC(N)=O)C(=O)N[C@H](C(=O)NCC(=O)N[C@@H](CO)C(=O)N[C@@H](CCCNC(=N)N)C(=O)N[C@H](C(=O)N[C@@H](Cc1ccc(O)cc1)C(N)=O)[C@@H](C)O)C(C)C)[C@@H](C)O
notes: also called compound 89
Q: For B2, which “Ratio hCT/hAmylin binding” value [1] is on record?
A: 28

Q: What about the IC50 [2] of the same binder?
A: 32.5 nM

Q: And the IC50 [3]?
A: 1.16 nM

B3: N^ε1-[(4S)-4-carboxy-4-[[(4S)-4-carboxy-4-(19-carboxynonadecanoylamino)butanoyl]amino]butanoyl]-[Glu14,Arg17,Pro21,Pro27,His34,Glu35]-h-amylin (peptide)
peptide: K([γGlu-γGlu-C20 diacid])CNTATCATQRLAEFLRHSSPNFGAIPSSTNVGHETY-NH2
modifications: disulfide 2-7; N-terminus assumed
SMILES: CC[C@H](C)[C@H](NC(=O)[C@H](C)NC(=O)CNC(=O)[C@H](Cc1ccccc1)NC(=O)[C@H](CC(N)=O)NC(=O)[C@@H]1CCCN1C(=O)[C@H](CO)NC(=O)[C@H](CO)NC(=O)[C@H](Cc1c[nH]cn1)NC(=O)[C@H](CCCNC(=N)N)NC(=O)[C@H](CC(C)C)NC(=O)[C@H](Cc1ccccc1)NC(=O)[C@H](CCC(=O)O)NC(=O)[C@H](C)NC(=O)[C@H](CC(C)C)NC(=O)[C@H](CCCNC(=N)N)NC(=O)[C@H](CCC(N)=O)NC(=O)[C@@H](NC(=O)[C@H](C)NC(=O)[C@@H]1CSSC[C@H](NC(=O)[C@@H](N)CCCCNC(=O)CC[C@H](NC(=O)CC[C@H](NC(=O)CCCCCCCCCCCCCCCCCCC(=O)O)C(=O)O)C(=O)O)C(=O)N[C@@H](CC(N)=O)C(=O)N[C@@H]([C@@H](C)O)C(=O)N[C@@H](C)C(=O)N[C@@H]([C@@H](C)O)C(=O)N1)[C@@H](C)O)C(=O)N1CCC[C@H]1C(=O)N[C@@H](CO)C(=O)N[C@@H](CO)C(=O)N[C@H](C(=O)N[C@@H](CC(N)=O)C(=O)N[C@H](C(=O)NCC(=O)N[C@@H](Cc1c[nH]cn1)C(=O)N[C@@H](CCC(=O)O)C(=O)N[C@H](C(=O)N[C@@H](Cc1ccc(O)cc1)C(N)=O)[C@@H](C)O)C(C)C)[C@@H](C)O
Q: Which results are given for B3?
A: Ratio hCT/hAmylin binding [1]: 29.1; IC50 [2]: 15.2 nM; IC50 [3]: 0.525 nM

B4: N^ε1-[(4S)-4-carboxy-4-[[(4S)-4-carboxy-4-(19-carboxynonadecanoylamino)butanoyl]amino]butanoyl]-[Glu14,Arg17,Pro21,Pro27,His34]-h-amylin (peptide)
peptide: K([γGlu-γGlu-C20 diacid])CNTATCATQRLAEFLRHSSPNFGAIPSSTNVGHNTY-NH2
modifications: disulfide 2-7; N-terminus assumed
SMILES: CC[C@H](C)[C@H](NC(=O)[C@H](C)NC(=O)CNC(=O)[C@H](Cc1ccccc1)NC(=O)[C@H](CC(N)=O)NC(=O)[C@@H]1CCCN1C(=O)[C@H](CO)NC(=O)[C@H](CO)NC(=O)[C@H](Cc1c[nH]cn1)NC(=O)[C@H](CCCNC(=N)N)NC(=O)[C@H](CC(C)C)NC(=O)[C@H](Cc1ccccc1)NC(=O)[C@H](CCC(=O)O)NC(=O)[C@H](C)NC(=O)[C@H](CC(C)C)NC(=O)[C@H](CCCNC(=N)N)NC(=O)[C@H](CCC(N)=O)NC(=O)[C@@H](NC(=O)[C@H](C)NC(=O)[C@@H]1CSSC[C@H](NC(=O)[C@@H](N)CCCCNC(=O)CC[C@H](NC(=O)CC[C@H](NC(=O)CCCCCCCCCCCCCCCCCCC(=O)O)C(=O)O)C(=O)O)C(=O)N[C@@H](CC(N)=O)C(=O)N[C@@H]([C@@H](C)O)C(=O)N[C@@H](C)C(=O)N[C@@H]([C@@H](C)O)C(=O)N1)[C@@H](C)O)C(=O)N1CCC[C@H]1C(=O)N[C@@H](CO)C(=O)N[C@@H](CO)C(=O)N[C@H](C(=O)N[C@@H](CC(N)=O)C(=O)N[C@H](C(=O)NCC(=O)N[C@@H](Cc1c[nH]cn1)C(=O)N[C@@H](CC(N)=O)C(=O)N[C@H](C(=O)N[C@@H](Cc1ccc(O)cc1)C(N)=O)[C@@H](C)O)C(C)C)[C@@H](C)O
notes: also called compound 87
Q: How did the “Ratio hCT/hAmylin binding” value [1] turn out when B4 was run?
A: 35.6

Q: What about the IC50 [2] of the same binder?
A: 22.5 nM

Q: What about the IC50 [3] of the same binder?
A: 0.633 nM
